Data from patent publication US20150139990A1 (DAINIPPON SUMITOMO PHARMA, published 2015).
Positions count from the first letter of the chain named. In names and notes the source's numbering stands. One block for each binder: values may come before it.

Legend:
human CD81 mutant A164T = biological target: T1, human CD81 mutant A164T (human, UniProt P60033 1-236, limits assumed); test: ELISA
T1 construct: as m30; not shown: C-terminal V5 and 6xHis tags
T1 sequence: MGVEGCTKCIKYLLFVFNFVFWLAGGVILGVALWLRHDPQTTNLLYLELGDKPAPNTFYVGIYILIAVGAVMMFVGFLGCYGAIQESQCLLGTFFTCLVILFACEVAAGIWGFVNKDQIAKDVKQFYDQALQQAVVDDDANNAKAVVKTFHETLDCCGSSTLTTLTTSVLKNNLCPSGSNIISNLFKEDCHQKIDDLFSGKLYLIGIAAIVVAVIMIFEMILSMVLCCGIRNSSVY

human CD81 mutant I194A = biological target: T2, human CD81 mutant I194A (human, UniProt P60033 1-236, limits assumed); test: ELISA
T2 construct: as m30; not shown: C-terminal V5 and 6xHis tags
T2 sequence: T1 sequence with T164A, I194A

human CD81 mutant V135L = biological target: T3, human CD81 mutant V135L (human, UniProt P60033 1-236, limits assumed); test: ELISA
T3 construct: as m30; not shown: C-terminal V5 and 6xHis tags
T3 sequence: T1 sequence with V135L, T164A

human CD81 mutant D137E = biological target: T4, human CD81 mutant D137E (human, UniProt P60033 1-236, limits assumed); test: ELISA
T4 construct: as m30; not shown: C-terminal V5 and 6xHis tags
T4 sequence: T1 sequence with D137E, T164A

human CD81 mutant H151R = biological target: T5, human CD81 mutant H151R (human, UniProt P60033 1-236, limits assumed); test: ELISA
T5 construct: as m30; also called H151B; not shown: C-terminal V5 and 6xHis tags
T5 sequence: T1 sequence with H151R, T164A

human CD81 mutant G158A = biological target: T6, human CD81 mutant G158A (human, UniProt P60033 1-236, limits assumed); test: ELISA
T6 construct: as m30; not shown: C-terminal V5 and 6xHis tags
T6 sequence: T1 sequence with G158A, T164A

human CD81 mutant A164V = biological target: T7, human CD81 mutant A164V (human, UniProt P60033 1-236, limits assumed); test: ELISA
T7 construct: as m30; not shown: C-terminal V5 and 6xHis tags
T7 sequence: T1 sequence with T164V

human CD81 mutant S168T = biological target: T8, human CD81 mutant S168T (human, UniProt P60033 1-236, limits assumed); test: ELISA
T8 construct: as m30; not shown: C-terminal V5 and 6xHis tags
T8 sequence: T1 sequence with T164A, S168T

human CD81 mutant V169L = biological target: T9, human CD81 mutant V169L (human, UniProt P60033 1-236, limits assumed); test: ELISA
T9 construct: as m30; not shown: C-terminal V5 and 6xHis tags
T9 sequence: T1 sequence with T164A, V169L

[1] = biological target: T10, human CD81 on CD81-expressing cells (Jurkat E6.1, human PBMC, Ramos) (human, UniProt P60033 1-236); test: cell-based or functional assay
T10 sequence: T1 sequence with T164A

B1: 002-A07 IgG4 antibody (antibody)
heavy: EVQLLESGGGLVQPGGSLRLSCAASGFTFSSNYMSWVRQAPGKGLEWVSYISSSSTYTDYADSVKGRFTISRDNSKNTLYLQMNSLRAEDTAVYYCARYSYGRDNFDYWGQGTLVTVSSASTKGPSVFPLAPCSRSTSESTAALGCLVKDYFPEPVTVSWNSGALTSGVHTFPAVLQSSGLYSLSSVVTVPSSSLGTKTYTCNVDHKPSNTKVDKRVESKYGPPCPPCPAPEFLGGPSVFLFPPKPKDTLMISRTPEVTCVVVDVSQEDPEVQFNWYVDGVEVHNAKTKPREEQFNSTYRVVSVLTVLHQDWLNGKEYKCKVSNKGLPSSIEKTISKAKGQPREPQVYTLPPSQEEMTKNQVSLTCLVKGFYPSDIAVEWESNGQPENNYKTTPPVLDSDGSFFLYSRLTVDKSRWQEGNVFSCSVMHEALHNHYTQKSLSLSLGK
light: QSVLTQPPSASGTPGQRVTISCTGSTSNIGAGYDTHWYQQLPGTAPKLLIYGNSNRPSGVPDRFSGSKSGTSASLAISGLRSEDEADYYCQSYDTNLSVWVFGGGTKLTVLGQPKAAPSVTLFPPSSEELQANKATLVCLISDFYPGAVTVAWKADSSPVKAGVETTTPSKQSNNKYAASSYLSLTPEQWKSHRSYSCQVTHEGSTVEKTVAPTECS
notes: human IgG4 S228P, lambda light chain
relative binding affinity (human CD81 mutant A164T): < 20% | relative binding affinity (human CD81 mutant I194A): < 20% | relative binding affinity (human CD81 mutant V135L): < 20% | relative binding affinity (human CD81 mutant D137E): < 20% | relative binding affinity (human CD81 mutant H151R): < 20% | relative binding affinity (human CD81 mutant G158A): < 20% | relative binding affinity (human CD81 mutant A164V): < 20% | relative binding affinity (human CD81 mutant S168T): < 20% | relative binding affinity (human CD81 mutant V169L): < 20% | Jurkat chemotaxis (% of control IgG4) at 0.001 µg/mL [1]: 90% | Jurkat chemotaxis (% of control IgG4) at 0.01 µg/mL [1]: 93% | Jurkat chemotaxis (% of control IgG4) at 0.1 µg/mL [1]: 21% | Jurkat chemotaxis (% of control IgG4) at 1 µg/mL [1]: -2% | Jurkat chemotaxis (% of control IgG4) at 10 µg/mL [1]: 3%

B4: 002-A07 N113Q (antibody, human IgG4 S228P, lambda, V domains shown)
VH: EVQLLESGGGLVQPGGSLRLSCAASGFTFSSNYMSWVRQAPGKGLEWVSYISSSSTYTDYADSVKGRFTISRDNSKNTLYLQMNSLRAEDTAVYYCARYSYGRDNFDYWGQGTLVTVSS
VL: QSVLTQPPSASGTPGQRVTISCTGSTSNIGAGYDTHWYQQLPGTAPKLLIYGNSNRPSGVPDRFSGSKSGTSASLAISGLRSEDEADYYCQSYDTQLSVWVFGGGTKLTVLG
notes: IgG4 S228P; glycosylation site mutant of 002-A07 VL
relative binding affinity (human CD81 mutant A164T): < 20% | relative binding affinity (human CD81 mutant I194A): < 20% | relative binding affinity (human CD81 mutant V135L): < 20% | relative binding affinity (human CD81 mutant D137E): < 20% | relative binding affinity (human CD81 mutant H151R): < 20% | relative binding affinity (human CD81 mutant G158A): < 20% | relative binding affinity (human CD81 mutant A164V): < 20% | relative binding affinity (human CD81 mutant S168T): < 20% | relative binding affinity (human CD81 mutant V169L): < 20% | Jurkat chemotaxis (% of control IgG4) at 0.001 µg/mL [1]: 104% | Jurkat chemotaxis (% of control IgG4) at 0.01 µg/mL [1]: 99% | Jurkat chemotaxis (% of control IgG4) at 0.1 µg/mL [1]: 37% | Jurkat chemotaxis (% of control IgG4) at 1 µg/mL [1]: 13% | Jurkat chemotaxis (% of control IgG4) at 10 µg/mL [1]: 12%

B5: 002-A07 N113S (antibody, human IgG4 S228P, lambda, V domains shown)
VH: B4 VH
VL: B4 VL with Q96S
notes: as for B4
relative binding affinity (human CD81 mutant A164T): < 20% | relative binding affinity (human CD81 mutant I194A): < 20% | relative binding affinity (human CD81 mutant V135L): < 20% | relative binding affinity (human CD81 mutant D137E): < 20% | relative binding affinity (human CD81 mutant H151R): < 20% | relative binding affinity (human CD81 mutant G158A): < 20% | relative binding affinity (human CD81 mutant A164V): < 20% | relative binding affinity (human CD81 mutant S168T): < 20% | relative binding affinity (human CD81 mutant V169L): < 20% | Jurkat chemotaxis (% of control IgG4) at 0.001 µg/mL [1]: 99% | Jurkat chemotaxis (% of control IgG4) at 0.01 µg/mL [1]: 101% | Jurkat chemotaxis (% of control IgG4) at 0.1 µg/mL [1]: 40% | Jurkat chemotaxis (% of control IgG4) at 1 µg/mL [1]: 13% | Jurkat chemotaxis (% of control IgG4) at 10 µg/mL [1]: 12%

B7: 002-A07 S115G (antibody, human IgG4 S228P, lambda, V domains shown)
VH: B4 VH
VL: B4 VL with Q96N, S98G
notes: as for B4
relative binding affinity (human CD81 mutant A164T): < 20% | relative binding affinity (human CD81 mutant I194A): < 20% | relative binding affinity (human CD81 mutant V135L): < 20% | relative binding affinity (human CD81 mutant D137E): < 20% | relative binding affinity (human CD81 mutant H151R): < 20% | relative binding affinity (human CD81 mutant G158A): < 20% | relative binding affinity (human CD81 mutant A164V): < 20% | relative binding affinity (human CD81 mutant S168T): < 20% | relative binding affinity (human CD81 mutant V169L): < 20% | Jurkat chemotaxis (% of control IgG4) at 0.001 µg/mL [1]: 84% | Jurkat chemotaxis (% of control IgG4) at 0.01 µg/mL [1]: 74% | Jurkat chemotaxis (% of control IgG4) at 0.1 µg/mL [1]: 13% | Jurkat chemotaxis (% of control IgG4) at 1 µg/mL [1]: -9% | Jurkat chemotaxis (% of control IgG4) at 10 µg/mL [1]: -3%

Results, then the binder that gave them:

relative binding affinity (human CD81 mutant A164T): < 20% | relative binding affinity (human CD81 mutant I194A): < 20% | relative binding affinity (human CD81 mutant V135L): < 20% | relative binding affinity (human CD81 mutant H151R): < 20% | relative binding affinity (human CD81 mutant A164V): < 20% | relative binding affinity (human CD81 mutant V169L): < 20% | Jurkat chemotaxis (% of control IgG4) at 0.001 µg/mL [1]: 87% | Jurkat chemotaxis (% of control IgG4) at 0.01 µg/mL [1]: 79% | Jurkat chemotaxis (% of control IgG4) at 0.1 µg/mL [1]: 42% | Jurkat chemotaxis (% of control IgG4) at 1 µg/mL [1]: -5% | Jurkat chemotaxis (% of control IgG4) at 10 µg/mL [1]: -9%
B2: 003-D07 (antibody, human IgG4 S228P, lambda, V domains shown)
VH: B4 VH with G102D
VL: B4 VL with P8F, Q40H, Q96N
notes: IgG4 S228P

relative binding affinity (human CD81 mutant A164T): < 20% | relative binding affinity (human CD81 mutant I194A): < 20% | relative binding affinity (human CD81 mutant V135L): < 20% | relative binding affinity (human CD81 mutant D137E): < 20% | relative binding affinity (human CD81 mutant H151R): < 20% | relative binding affinity (human CD81 mutant G158A): < 20% | relative binding affinity (human CD81 mutant A164V): < 20% | relative binding affinity (human CD81 mutant S168T): < 20% | relative binding affinity (human CD81 mutant V169L): < 20% | Jurkat chemotaxis (% of control IgG4) at 0.001 µg/mL [1]: 82% | Jurkat chemotaxis (% of control IgG4) at 0.01 µg/mL [1]: 78% | Jurkat chemotaxis (% of control IgG4) at 0.1 µg/mL [1]: 32% | Jurkat chemotaxis (% of control IgG4) at 1 µg/mL [1]: -4% | Jurkat chemotaxis (% of control IgG4) at 10 µg/mL [1]: -9%
B3: 002-A07 S115A (antibody, human IgG4 S228P, lambda, V domains shown)
VH: B4 VH
VL: B4 VL with Q96N, S98A
notes: as for B4

relative binding affinity (human CD81 mutant A164T): < 20% | relative binding affinity (human CD81 mutant I194A): < 20% | relative binding affinity (human CD81 mutant V135L): < 20% | relative binding affinity (human CD81 mutant D137E): < 20% | relative binding affinity (human CD81 mutant H151R): < 20% | relative binding affinity (human CD81 mutant G158A): < 20% | relative binding affinity (human CD81 mutant A164V): < 20% | relative binding affinity (human CD81 mutant S168T): < 20% | relative binding affinity (human CD81 mutant V169L): < 20% | Jurkat chemotaxis (% of control IgG4) at 0.001 µg/mL [1]: 99% | Jurkat chemotaxis (% of control IgG4) at 0.01 µg/mL [1]: 101% | Jurkat chemotaxis (% of control IgG4) at 0.1 µg/mL [1]: 38% | Jurkat chemotaxis (% of control IgG4) at 1 µg/mL [1]: 13% | Jurkat chemotaxis (% of control IgG4) at 10 µg/mL [1]: 7%
B6: 002-A07 N113G (antibody, human IgG4 S228P, lambda, V domains shown)
VH: B4 VH
VL: B4 VL with Q96G
notes: as for B4
